{"source": "the nanobody polyreactivity screen of Harvey et al. (2022)", "assay": "yeast display, Sf9 membrane polyspecificity reagent, FACS + sequencing; frameworks hold sequencing errors", "outline": "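Polyreactivity labels are assigned by the sorting gate from which each nanobody was recovered. The gates were low and high (top ~1%), set on anti-HA fluorescence for expression and streptavidin fluorescence for reagent binding. Before sorting, galactose-induced (36–48 hours) yeast display cells were stained for 1 hour at 4 °C with 10% biotinylated, detergent-solubilized Sf9 membrane reagent.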", "data": [{"sequence": "QVQLVESGGGLVQAGGSLRLSCAASGFIFSWYDMGWYRQAPGKERELVAAISYSGSNTYYADSVKGRFTISRDNAKNTVYLQMNSLKPEDTAVYYCAATLGSRWAIYDYWGQGTQVTVSS", "values": [{"measurement": "polyreactivity (PSR sort gate)", "result": "high polyreactivity"}]}, {"sequence": "QVQLVESGGGLVQAGGSLRLSCAASGLTFRYYAMGWYRQAPGKEREWVASITSRGTSTYYADSVKGRFTISRDNAKNTVYLQMNSLKPEDTAVYYCAKPVGTVGYDYWGQGTQVTVSS", "values": [{"measurement": "polyreactivity (PSR sort gate)", "result": "high polyreactivity"}]}, {"sequence": "QVQLVESGGGLVQAGGSLRLSCAASGSTLRYNTMGWYRQAPGKERELVAAISVRGGSTYYADSVKGRFTISRDNAKNTVYLQMNSLKPEDTAVYYCARRIKLGQRQGGYYWGQGTQVTVSS", "values": [{"measurement": "polyreactivity (PSR sort gate)", "result": "high polyreactivity"}]}, {"sequence": "QVQLVESGGGLLQAGGSLRLSCAASGGTFSLNVMGWYRQAPGKEREFVATITYSGGSTYYADSVKGRFTISRDNAKNTVYLQMKSLKPEDTAVYYCAASFTYSQVTEPYGYWGQGSQVTVSS", "values": [{"measurement": "polyreactivity (PSR sort gate)", "result": "low polyreactivity"}]}, {"sequence": "QVQLVESGGGLVQAGGSLRLSCAASGSIFTGYAMGWYRQAPGKERELVAAISRSSGSTYYADSVKGRFTISRDNAKNTVYLQMNSLIPEDTAVYYCNAYSKYRSGRLYWMGYWGQGTQVTVSS", "values": [{"measurement": "polyreactivity (PSR sort gate)", "result": "low polyreactivity"}]}, {"sequence": "QVQLVESVGGLVQAGGSLRLSCAASGRIFRFYAMGWYRQAPGKERELVAAISSSGVRTYYADSVKGRFTISRDNAKKTVYLQINSLTPEDTAVYYCAASRHFARHRGYYFRYDYWGQGTQVTVSS", "values": [{"measurement": "polyreactivity (PSR sort gate)", "result": "high polyreactivity"}]}, {"sequence": "QVQLVESGGGLVQAGGSLRLSCAASGINFGRYAMGWYRQAPGKERELVATITVNGGRTYYADSVKGRFTISRDNAKNTVYLQMNSLKPEDTAVYYCNAEVPGHYFDGWYFYDFDYWGQGTQVTVSS", "values": [{"measurement": "polyreactivity (PSR sort gate)", "result": "low polyreactivity"}]}, {"sequence": "QVQLVESGGGLVQAGRSLRLSCAASGRIFCYYAMGWYRQAPGKERELVAAITRGGSTYYADSVKGRFTISRDNAKNTVYLQMNSLKPEDTAVYYCAATISGLVKYENDYWGQGTQVTVSS", "values": [{"measurement": "polyreactivity (PSR sort gate)", "result": "low polyreactivity"}]}, {"sequence": "QVQLVESGGGFVQAGGSLRLSCAASGLTLFRYAMGWYSQAPGKEREFVAAISPSGDRTYYADSVKGRFTISRDNAKNTVDLQMNSLKPEDTAVYYCNAWRYDYWGQGTQVTVSS", "values": [{"measurement": "polyreactivity (PSR sort gate)", "result": "high polyreactivity"}]}, {"sequence": "QVQLVESGGGLVQAVGSLRLSCAASGFTFTNYAMGWSRQAPVKEREFVAAISGTGGSTYYADSVKGRFTISRDNAYNTEYLQMNSLKPEDTAVYYCARRRTYPPGRYYYLGQGTQVTVSS", "values": [{"measurement": "polyreactivity (PSR sort gate)", "result": "high polyreactivity"}]}, {"sequence": "QVQLVESGGGLVQAGGSLRLSCAASGITFINYDMGWYRQAPGKERELVAAISQIGTSTYYADSVKGRFTISRDNAKNTVYLQMNSLKPEDTAVYYCNARYISTGFRYNYWGQGTQVTVSS", "values": [{"measurement": "polyreactivity (PSR sort gate)", "result": "high polyreactivity"}]}, {"sequence": "QVQLVESGGGLVHAGGSLRLSCAASGSTFDGYTMGWYRQAPGTERELVAAITDSGGSTYYADSVKGRFTISRDKAKNTVYLQMNSQKPEDTAVYYFAAAVPELYEVRYHDDYWGQGTQVTVSS", "values": [{"measurement": "polyreactivity (PSR sort gate)", "result": "low polyreactivity"}]}, {"sequence": "QVQLVESGGGLVQAGGSLRLSCAASGSIFGTNAMGWYRQAPGKERELVAAIDGGSTTYYADSVKGRFTISRDNAKNTVYLQMNSLKPEDTAVYYCAADGSRYLNYEGYAGYEYWGQGTQVTVSS", "values": [{"measurement": "polyreactivity (PSR sort gate)", "result": "low polyreactivity"}]}, {"sequence": "QVQLVESGGGLVQAGGSLRLSCAASGRIFGPYTMGWYRPAPGKERELVARISRRGGSTYYADSVKGRFTISRDNAKNTVYLQMNSLKPEDTAVYYCAAWFTSTRPYDYWGQGTQVTVSS", "values": [{"measurement": "polyreactivity (PSR sort gate)", "result": "high polyreactivity"}]}, {"sequence": "QVQLVESGGGLVQAGGSLRLSCAASGFILEAYAMGWYRQAPGKERELVAAITRRGTRTYYADSVKGRFTLSRDNAKNTVYLQMNSLKPEDTAVYYCNAESRSTWVAGYDYWGQGTQVTVSS", "values": [{"measurement": "polyreactivity (PSR sort gate)", "result": "high polyreactivity"}]}, {"sequence": "QVHLVESGGGLVQAGGSLRLSCAASGSIIRYYAMGWYRQAPGKERELVAVITRGGSTYYADSVKGRFTISRDNAKSTVYLQMNSLKPEDTAVYYCAADYWPAGLDRGYWGQGTQVTVSS", "values": [{"measurement": "polyreactivity (PSR sort gate)", "result": "low polyreactivity"}]}, {"sequence": "QVQLVESGGGLVQAGGSLRLSCAASGSTFFPYAMGWYRQAPGKERELVATINYSGGGTYYADSVKGRFTISRDNAKNTVYLQMNSLKPEDTAVYYCANTLARFDRGYYWGQGTQVTVSS", "values": [{"measurement": "polyreactivity (PSR sort gate)", "result": "low polyreactivity"}]}]}
